Test results reported in the supplement of paper PMC10065799, “High-throughput profiling of sequence recognition by tyrosine kinases and SH2 domains using bacterial peptide display” (eLife, 2023).

Key:
AncSZ = test: phosphorylation enrichment, bacterial display (enrichment ratio); higher = better substrate or ligand; peptides without Tyr show the background
EPHB1 = EPHB1 (UniProt P54762); test: as above
EPHB2 = EPHB2 (UniProt P29323); test: as above
FGFR1 = FGFR1 (UniProt P11362); test: as above
FGFR3 = FGFR3 (UniProt P22607); test: as above
Fer (mouse) = test: as above
Fes = Fes (UniProt P07332); test: as above
Fyn = Fyn (UniProt P06241); test: as above
Hck = Hck (UniProt P08631); test: as above
Jak2 = Jak2 (UniProt O60674); test: as above
MERTK = MERTK (UniProt Q12866); test: as above
c-Abl (mouse) = test: as above
c-Src = test: as above
Grb2 SH2 = Grb2 SH2 (UniProt P62993); test: SH2 binding enrichment of the phosphorylated peptide, bacterial display (enrichment ratio); higher = better substrate or ligand; peptides without Tyr show the background
SHP2-C SH2 = test: as above
c-Src SH2 = test: as above
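Wherever SH2 binding enrichment of the phosphorylated peptide, bacterial display is given: peptide library displayed on the E. coli surface as eCPX fusions, selected cells deep-sequenced, score is each peptide's frequency after selection divided by its frequency in the input.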
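Wherever phosphorylation enrichment, bacterial display is given: 11-residue human phosphosite peptides and single-mutation variants displayed on the E. coli surface, counted by deep sequencing, each peptide's frequency after selection divided by its frequency in the unselected input library; frequency after pTyr selection over input frequency; kinase dosed for 20-30% of maximal phosphorylation in three min.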

FGFR1, sequence (P11362 whole entry, looked up): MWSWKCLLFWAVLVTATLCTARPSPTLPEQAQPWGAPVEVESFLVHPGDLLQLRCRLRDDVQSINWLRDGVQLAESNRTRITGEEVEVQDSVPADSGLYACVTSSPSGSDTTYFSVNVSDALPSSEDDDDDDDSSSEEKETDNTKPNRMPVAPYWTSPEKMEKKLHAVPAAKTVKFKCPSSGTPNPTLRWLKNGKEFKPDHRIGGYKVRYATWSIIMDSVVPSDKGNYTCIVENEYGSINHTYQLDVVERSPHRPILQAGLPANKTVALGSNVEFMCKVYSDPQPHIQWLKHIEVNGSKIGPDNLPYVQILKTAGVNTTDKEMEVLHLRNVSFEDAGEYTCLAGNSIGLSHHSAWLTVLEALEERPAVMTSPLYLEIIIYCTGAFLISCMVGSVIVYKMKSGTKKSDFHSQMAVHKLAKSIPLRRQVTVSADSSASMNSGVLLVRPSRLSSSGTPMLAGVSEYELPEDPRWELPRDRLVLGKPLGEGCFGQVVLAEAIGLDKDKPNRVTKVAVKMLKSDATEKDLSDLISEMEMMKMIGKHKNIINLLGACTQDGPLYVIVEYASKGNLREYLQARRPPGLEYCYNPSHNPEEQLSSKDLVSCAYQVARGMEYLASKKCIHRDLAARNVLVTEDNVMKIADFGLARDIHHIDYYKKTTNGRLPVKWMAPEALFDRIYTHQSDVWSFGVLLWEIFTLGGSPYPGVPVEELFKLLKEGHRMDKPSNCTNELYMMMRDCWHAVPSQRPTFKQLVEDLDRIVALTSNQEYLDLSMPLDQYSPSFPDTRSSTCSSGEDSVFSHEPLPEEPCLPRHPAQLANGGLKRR
Jak2, sequence (O60674 whole entry, looked up): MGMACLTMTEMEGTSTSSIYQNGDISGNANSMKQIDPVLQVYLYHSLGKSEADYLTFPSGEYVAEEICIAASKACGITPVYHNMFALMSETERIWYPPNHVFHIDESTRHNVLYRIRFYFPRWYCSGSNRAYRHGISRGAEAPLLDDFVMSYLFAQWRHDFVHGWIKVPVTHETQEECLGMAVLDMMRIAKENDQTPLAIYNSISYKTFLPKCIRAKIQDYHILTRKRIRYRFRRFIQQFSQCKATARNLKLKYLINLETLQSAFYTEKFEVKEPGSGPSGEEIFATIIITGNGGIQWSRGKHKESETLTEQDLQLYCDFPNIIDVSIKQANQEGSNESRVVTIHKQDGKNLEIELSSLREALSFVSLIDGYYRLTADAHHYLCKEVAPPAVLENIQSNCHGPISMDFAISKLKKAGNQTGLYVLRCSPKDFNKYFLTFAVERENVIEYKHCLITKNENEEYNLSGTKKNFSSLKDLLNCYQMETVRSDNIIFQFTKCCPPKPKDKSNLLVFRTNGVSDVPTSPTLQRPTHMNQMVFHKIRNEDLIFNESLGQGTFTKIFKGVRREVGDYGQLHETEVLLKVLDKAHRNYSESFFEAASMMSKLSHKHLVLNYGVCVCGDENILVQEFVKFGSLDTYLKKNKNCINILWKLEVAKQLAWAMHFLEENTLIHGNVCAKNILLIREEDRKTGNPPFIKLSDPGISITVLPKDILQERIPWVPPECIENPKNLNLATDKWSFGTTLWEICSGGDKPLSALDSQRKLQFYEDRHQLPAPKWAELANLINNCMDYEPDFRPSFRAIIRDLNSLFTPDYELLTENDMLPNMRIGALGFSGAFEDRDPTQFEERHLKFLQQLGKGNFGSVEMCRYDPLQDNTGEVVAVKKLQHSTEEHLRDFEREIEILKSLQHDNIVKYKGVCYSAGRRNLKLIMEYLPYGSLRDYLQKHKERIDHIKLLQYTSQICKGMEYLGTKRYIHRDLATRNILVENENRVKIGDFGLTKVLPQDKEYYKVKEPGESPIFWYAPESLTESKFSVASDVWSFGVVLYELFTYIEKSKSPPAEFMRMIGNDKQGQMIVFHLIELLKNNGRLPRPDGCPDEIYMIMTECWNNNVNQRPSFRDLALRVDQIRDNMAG
FGFR3, sequence (P22607 whole entry, looked up): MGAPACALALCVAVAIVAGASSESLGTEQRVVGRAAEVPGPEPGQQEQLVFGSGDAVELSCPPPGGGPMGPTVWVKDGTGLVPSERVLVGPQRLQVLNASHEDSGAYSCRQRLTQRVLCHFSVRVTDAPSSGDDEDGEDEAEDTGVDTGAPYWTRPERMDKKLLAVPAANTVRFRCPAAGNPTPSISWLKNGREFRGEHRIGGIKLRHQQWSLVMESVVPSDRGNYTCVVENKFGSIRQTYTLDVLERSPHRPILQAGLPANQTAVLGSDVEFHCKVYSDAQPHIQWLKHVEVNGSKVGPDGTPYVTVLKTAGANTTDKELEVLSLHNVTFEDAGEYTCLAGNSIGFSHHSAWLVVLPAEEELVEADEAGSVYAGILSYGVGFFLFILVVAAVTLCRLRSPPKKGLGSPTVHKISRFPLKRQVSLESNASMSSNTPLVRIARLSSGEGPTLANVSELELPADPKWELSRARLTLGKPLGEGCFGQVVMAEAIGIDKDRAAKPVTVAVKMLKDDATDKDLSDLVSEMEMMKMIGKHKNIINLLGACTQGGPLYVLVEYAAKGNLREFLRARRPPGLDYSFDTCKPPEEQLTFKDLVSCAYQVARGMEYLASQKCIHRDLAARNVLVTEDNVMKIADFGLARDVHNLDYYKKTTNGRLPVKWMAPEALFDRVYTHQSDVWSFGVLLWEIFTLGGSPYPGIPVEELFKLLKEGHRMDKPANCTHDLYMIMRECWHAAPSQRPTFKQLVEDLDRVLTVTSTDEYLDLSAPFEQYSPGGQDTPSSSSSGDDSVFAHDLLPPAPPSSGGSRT
EPHB2, sequence (P29323 whole entry, looked up): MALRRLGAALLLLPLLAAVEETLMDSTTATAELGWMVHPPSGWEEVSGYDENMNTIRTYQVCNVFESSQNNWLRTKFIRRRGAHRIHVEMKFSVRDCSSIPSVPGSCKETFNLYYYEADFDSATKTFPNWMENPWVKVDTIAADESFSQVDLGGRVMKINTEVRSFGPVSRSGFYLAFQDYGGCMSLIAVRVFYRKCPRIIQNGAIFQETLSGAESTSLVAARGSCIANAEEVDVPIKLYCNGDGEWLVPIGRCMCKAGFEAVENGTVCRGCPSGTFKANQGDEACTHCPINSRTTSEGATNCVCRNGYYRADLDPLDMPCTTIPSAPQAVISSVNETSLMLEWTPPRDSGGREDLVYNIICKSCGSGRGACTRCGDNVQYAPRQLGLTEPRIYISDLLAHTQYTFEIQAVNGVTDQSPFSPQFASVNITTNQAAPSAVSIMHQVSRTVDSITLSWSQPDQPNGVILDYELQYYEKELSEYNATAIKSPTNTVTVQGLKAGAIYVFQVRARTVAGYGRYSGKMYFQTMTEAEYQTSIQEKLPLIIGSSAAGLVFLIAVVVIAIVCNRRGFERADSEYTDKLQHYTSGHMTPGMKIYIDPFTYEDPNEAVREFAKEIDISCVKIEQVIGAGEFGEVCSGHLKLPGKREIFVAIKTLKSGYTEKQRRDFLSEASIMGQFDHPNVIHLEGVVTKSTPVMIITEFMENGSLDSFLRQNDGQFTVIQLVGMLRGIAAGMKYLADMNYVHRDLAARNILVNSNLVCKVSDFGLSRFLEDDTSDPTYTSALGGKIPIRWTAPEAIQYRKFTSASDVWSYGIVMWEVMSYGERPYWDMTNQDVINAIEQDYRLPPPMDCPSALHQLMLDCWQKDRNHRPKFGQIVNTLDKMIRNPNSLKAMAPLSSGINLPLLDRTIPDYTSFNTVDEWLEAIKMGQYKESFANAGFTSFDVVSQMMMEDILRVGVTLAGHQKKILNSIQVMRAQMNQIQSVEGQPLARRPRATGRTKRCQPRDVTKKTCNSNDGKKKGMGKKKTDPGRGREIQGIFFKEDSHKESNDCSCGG
Fes, sequence (P07332 whole entry, looked up): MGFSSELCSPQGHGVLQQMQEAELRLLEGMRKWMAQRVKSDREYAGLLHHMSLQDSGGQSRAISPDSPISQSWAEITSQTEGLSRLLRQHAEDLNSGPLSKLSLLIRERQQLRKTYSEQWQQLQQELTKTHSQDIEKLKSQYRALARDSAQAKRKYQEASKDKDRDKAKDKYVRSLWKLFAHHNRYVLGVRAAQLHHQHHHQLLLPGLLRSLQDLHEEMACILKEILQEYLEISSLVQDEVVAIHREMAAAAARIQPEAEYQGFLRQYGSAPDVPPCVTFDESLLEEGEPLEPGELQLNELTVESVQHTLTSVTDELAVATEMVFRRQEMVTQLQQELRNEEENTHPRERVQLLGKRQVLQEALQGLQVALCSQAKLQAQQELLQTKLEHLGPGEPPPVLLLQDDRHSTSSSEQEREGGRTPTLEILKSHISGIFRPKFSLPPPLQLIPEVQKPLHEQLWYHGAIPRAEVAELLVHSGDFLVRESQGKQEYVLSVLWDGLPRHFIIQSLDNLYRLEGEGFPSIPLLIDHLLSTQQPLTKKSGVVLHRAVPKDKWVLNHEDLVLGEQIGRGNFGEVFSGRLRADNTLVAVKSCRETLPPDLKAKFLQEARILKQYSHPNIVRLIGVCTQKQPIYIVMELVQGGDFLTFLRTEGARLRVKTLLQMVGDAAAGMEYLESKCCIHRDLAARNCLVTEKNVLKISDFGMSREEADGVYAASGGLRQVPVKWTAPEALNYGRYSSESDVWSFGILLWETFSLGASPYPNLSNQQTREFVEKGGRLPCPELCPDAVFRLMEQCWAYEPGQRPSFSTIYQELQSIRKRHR

Sequence | SH2 binding enrichment (Grb2 SH2) | SH2 binding enrichment (SHP2-C SH2) | SH2 binding enrichment (c-Src SH2) | phosphorylation enrichment (AncSZ) | phosphorylation enrichment (EPHB1) | phosphorylation enrichment (EPHB2) | phosphorylation enrichment (FGFR1) | phosphorylation enrichment (FGFR3) | phosphorylation enrichment (Fer (mouse)) | phosphorylation enrichment (Fes) | phosphorylation enrichment (Fyn) | phosphorylation enrichment (Hck) | phosphorylation enrichment (Jak2) | phosphorylation enrichment (MERTK) | phosphorylation enrichment (c-Abl (mouse)) | phosphorylation enrichment (c-Src)
QRRLIYRCQVG [NR2E3_Y81_R76Q] | 0.628 | 0.412 | 0.606 | 0.968 | 0.622 | 0.728 | 0.579 | 0.845 | 0.643 | 0.861 | 0.764 | 0.629 | 1.03 | 0.652 | 0.595 | 0.569
QRRNVYFFSFL [PTEN_Y176_Y174N_YF] | 1.13 | 1.8 | 0.92 | 1.11 | 0.649 | 0.475 | 0.562 | 0.728 | 0.398 | 1.42 | 1.15 | 0.34 | 1.13 | 0.5 | 0.509 | 0.67
QTSTDYDIRFF [CSNK2A1_Y131_L128S_YF] | 1.15 | 0.864 | 0.477 | 2.12 | 1.27 | 1.22 | 0.667 | 1.41 | 0.809 | 1.81 | 1.43 | 0.968 | 1.61 | 0.688 | 1.18 | 0.892
QWLEQYTQAIE [LSP1_Y234] | 0.876 | 0.574 | 0.709 | 1.4 | 0.579 | 0.623 | 0.489 | 0.589 | 0.473 | 1.15 | 0.596 | 0.699 | 0.924 | 0.37 | 10.2 | 0.406
RAILLYEFVGK [NATD1_Y45_V42I_YF] | 1.58 | 1.7 | 1.31 | 4.95 | 49.4 | 65.8 | 4.88 | 5.57 | 32.5 | 7.5 | 12.1 | 19.9 | 3.76 | 24.9 | 2.52 | 12.3

Now from value to sequence, other results behind:

SH2 binding enrichment (Grb2 SH2) | SH2 binding enrichment (SHP2-C SH2) | SH2 binding enrichment (c-Src SH2) | Sequence | phosphorylation enrichment (AncSZ) | phosphorylation enrichment (EPHB1) | phosphorylation enrichment (EPHB2) | phosphorylation enrichment (FGFR1) | phosphorylation enrichment (FGFR3) | phosphorylation enrichment (Fer (mouse)) | phosphorylation enrichment (Fes) | phosphorylation enrichment (Fyn) | phosphorylation enrichment (Hck) | phosphorylation enrichment (Jak2) | phosphorylation enrichment (MERTK) | phosphorylation enrichment (c-Abl (mouse)) | phosphorylation enrichment (c-Src)
0.928 | 0.403 | 0.39 | QRASDYYSQQM [GBP6_Y333_A331S] | 0.825 | 0.66 | 0.589 | 1.36 | 1.22 | 0.453 | 0.754 | 0.574 | 0.788 | 0.805 | 0.558 | 0.486 | 0.58
1.01 | 1 | 1.36 | QRIHDYYEHRY [HCN4_Y554] | 1.25 | 1.17 | 1.23 | 15.7 | 9.67 | 0.903 | 0.974 | 0.657 | 0.825 | 0.794 | 0.433 | 0.445 | 0.478
0.955 | 1.27 | 1.58 | QRRNVYYYSYL [PTEN_Y176_Y174N] | 1.72 | 5.79 | 3.05 | 16.4 | 11.6 | 2.77 | 1.41 | 9.83 | 7.54 | 8.42 | 16 | 1.15 | 8.15
1.04 | 1.72 | 0.603 | QYNMQYSSSAA [ERBB2IP_Y981_I979M] | 0.882 | 0.445 | 0.687 | 0.792 | 0.655 | 0.872 | 1.18 | 0.736 | 0.732 | 0.956 | 0.793 | 1.09 | 0.859
